Reference: US20250043001A1 (Xencor, published 2025)
Changes are numbered by the printed parent chain. One block for each binder: values may come before it.

What was measured:
STEAP1 [1] = target: T1, STEAP1 (UniProt Q9UHE8 1-339, limits assumed); experiment: flow cytometry, bivalent mAbs on C4-2B cells
T1 construct: whole, on cells; also called Six-Transmembrane Epithelial Antigen of the Prostate 1
Experimental: Optimized humanized STEAP-A variants were then engineered in order to improve their binding affinity to STEAP-1. In the first round, 82 variant VLs were engineered as L1.4-L1.85 and 151 variant VHs were engineered as H1.39-H1.189. Variants were produced as bivalent mAbs, the sequences for which are depicted in FIG. 30. The bivalent mAbs were then screened for binding to STEAP-1 on C4-2B cells. Cells were mixed with mAbs and incubated for 1 hour on ice, washed with PBS, stained with secondary antibody for 1 hour on ice, and washed again before analyzing binding utilizing flow cytometry.
In the second round, 34 variant VLs were engineered and designated as L1.86-L1.119 and 39 variant VHs were engineered and designated as H1.190-H1.228. Bivalent mAbs from the second round of affinity maturation were also screened for binding to STEAP-1 expressed on C4-2B cells. Flow cytometry analysis was used to determine relative maximum MFI values, AUC values, and approximate EC50 values for each test article, as summarized in FIG. 34. […] A final set of variable heavy domain substitutions were engineered and designated H1.229- H1.232. […] Sequences for each variant VH and VL are depicted in FIGS. 31 and 32, respectively.

CEACAM5 = target: T2, CEACAM5 (UniProt P06731 35-685); experiment: binding affinity (Octet at 25 C per FIG. 80 legend)
T2 construct: also called carcinoembryonic antigen-related cell adhesion molecule 5; CD66e
T2 sequence (looked up): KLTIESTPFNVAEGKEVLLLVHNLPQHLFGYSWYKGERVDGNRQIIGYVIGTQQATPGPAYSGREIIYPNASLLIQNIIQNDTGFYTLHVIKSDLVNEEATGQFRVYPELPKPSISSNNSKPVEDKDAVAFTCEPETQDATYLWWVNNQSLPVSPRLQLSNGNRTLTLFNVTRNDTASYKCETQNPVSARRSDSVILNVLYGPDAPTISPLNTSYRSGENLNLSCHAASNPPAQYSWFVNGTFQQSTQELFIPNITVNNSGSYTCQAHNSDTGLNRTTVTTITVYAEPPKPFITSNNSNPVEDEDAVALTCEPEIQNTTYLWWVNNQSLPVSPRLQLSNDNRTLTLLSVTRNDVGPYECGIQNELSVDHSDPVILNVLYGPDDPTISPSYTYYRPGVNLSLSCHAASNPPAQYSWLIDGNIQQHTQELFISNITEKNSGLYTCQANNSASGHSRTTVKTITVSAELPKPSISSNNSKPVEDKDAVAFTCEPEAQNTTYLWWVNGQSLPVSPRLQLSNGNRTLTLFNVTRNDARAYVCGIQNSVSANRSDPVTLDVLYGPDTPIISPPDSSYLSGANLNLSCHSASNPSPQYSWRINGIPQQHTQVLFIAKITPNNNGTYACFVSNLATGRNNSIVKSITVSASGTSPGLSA

CEACAM8 = target: T3, CEACAM8 (UniProt P31997 35-320); experiment: as above
T3 sequence (looked up): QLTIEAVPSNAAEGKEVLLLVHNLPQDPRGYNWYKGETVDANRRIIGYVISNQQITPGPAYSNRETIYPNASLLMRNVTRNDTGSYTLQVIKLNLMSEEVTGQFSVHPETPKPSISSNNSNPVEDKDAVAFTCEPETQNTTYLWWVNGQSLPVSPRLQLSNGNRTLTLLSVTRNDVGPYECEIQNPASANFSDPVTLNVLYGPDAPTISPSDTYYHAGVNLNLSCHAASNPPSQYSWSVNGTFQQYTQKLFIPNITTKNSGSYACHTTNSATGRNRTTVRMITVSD

human CD28 = target: T4, human CD28 (human, UniProt P10747 19-152); experiment: affinity; method not given
T4 construct: also called Cluster of Differentiation 28; Tp44

STEAP1 [2] = target: T1, STEAP1; experiment: cell binding (MFI) on LOX-IMVI cells expressing STEAP1
Source text: STEAP1 x CD28 bsAbs were engineered in 2+1 formats (mAb-scFv or Fab₂-scFv-Fc) to investigate the effects of bivalent binding to STEAP1 antigen compared with monovalent binding of a STEAP1 x CD28 bsAb in the 1+1 Fab-scFv format. LOX-IMVI cells (which express both STEAP1 at—8000 antigens/cell as well as an aCD3-scFv in order to provide Signal 1) were mixed with purified T cells at a 1:1 E:T ratio. As depicted in FIG. 36, XENP47235 in the […] format reaches a higher level of binding as measured by the MFI, indicating a higher antigen binding capacity and potentially higher efficacy. […] Each format may be advantageous in different contexts.

Kd (human CD28): ~200 nM
B4: 1A7_H1.14_L1 (antibody, V domains shown)
VH: EVQLLESGGGLVQPGGSLRLSCAASGFTFSSYYMSWVRQAPGKGLEWVSTISESGDSTYYADSVKGRFTISRDNSKNTLYLQMNSLRAEDTAVYYCAKSGPGLRQVGFDYWGQGTLVTVSS
VL: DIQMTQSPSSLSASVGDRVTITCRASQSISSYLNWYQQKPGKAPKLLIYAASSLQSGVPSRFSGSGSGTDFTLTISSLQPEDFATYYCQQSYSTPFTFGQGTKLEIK
notes: Anti-CD28 VH/VL pair; also called 1A7[CD28]_H1.14_L1

binding result (STEAP1 [2]): binds
B5: XENP47241 (bispecific antibody)
heavy 1: QVQVQESGPGLVKPSQTLSLTCTVSGYSITSDYSWNWIRQPPGKKLEWIGYIGTSGSTVYNPSLKSRVTISRDTSKNQFSLKLSSVTAADTAVYYCARERNYDYELYYYAMDYWGQGTLVTVSSASTKGPSVFPLAPSSKSTSGGTAALGCLVKDYFPEPVTVSWNSGALTSGVHTFPAVLQSSGLYSLSSVVTVPSSSLGTQTYICNVNHKPSDTKVDKKVEPKSCDKTHTCPPCPAPPVAGPSVFLFPPKPKDTLMISRTPEVTCVVVDVKHEDPEVKFNWYVDGVEVHNAKTKPREEEYNSTYRVVSVLTVLHQDWLNGKEYKCKVSNKALPAPIEKTISKAKGQPREPQVYTLPPSREEMTKNQVSLTCDVSGFYPSDIAVEWESDGQPENNYKTTPPVLDSDGSFFLYSKLTVDKSRWEQGDVFSCSVLHEALHSHYTQKSLSLSPGK
heavy 2: not shown
light 1: not shown
light 2: not shown
notes: also called STEAP1 x CD28 bsAb in the 2+1 mAb-scFv format

The remaining lines, values behind:

B1: XENP46500 (antibody, human IgG1, kappa, V domains shown)
VH: QVQVQESGPGLVKPSQTLSLTCTVSGYSITSDYAWNWIRQPPGKKLEWIGYISNSGSTSYNPSLKSRVTISRDTSKNQFSLKLSSVTAADTAVYYCARERNYDYELYYYAMDYWGQGTLVTVSS
VL: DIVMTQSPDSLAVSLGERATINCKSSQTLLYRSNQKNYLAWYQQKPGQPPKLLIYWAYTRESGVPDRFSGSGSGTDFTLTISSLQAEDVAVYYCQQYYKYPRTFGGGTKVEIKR
notes: also called H1.21 and L1.115; copies: 2 + 2
binding result (STEAP1 [1]): binds

B2: XENP45835 (antibody, V domains shown)
VH: B1 VH with E105D, L106D
VL: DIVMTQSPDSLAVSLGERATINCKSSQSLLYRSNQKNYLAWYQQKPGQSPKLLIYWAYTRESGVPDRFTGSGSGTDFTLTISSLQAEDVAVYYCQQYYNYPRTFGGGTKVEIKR
notes: also called L1.56; H1 and L1.56; copies: 2 + 2
binding result (STEAP1 [1]): binds

B3: CEA-A_H1.7_L2.15 (antibody, V domains shown)
VH: EVQLVESGGGLVQPGGSLRLSCAASGFTFTDYYMNWVRQAPGKGLEWVGFIGNKANAYTTEYSASVKGRFTISRDKSKSSLYLQMNSLKTEDTAVYYCTRDRGLRFYFDYWGQGTLVTVSS
VL: EIVLTQSPATLSLSPGERATLSCRASSSVTYIHWYQQKPGQAPKSLIYATSNLASGIPARFSGSGSGTDFTLTISSLEPEDFAVYYCQHWSSKPPTFGGGTKVEIK
Kd (CEACAM5): 13 nM
Kd (CEACAM8): 3330 nM
